From article PMC8733265, “Microscale thermophoresis suggests a new model of regulation of cardiac myosin function via interaction with cardiac myosin-binding protein C” (The Journal of Biological Chemistry, 2021) come the findings set out here.

As usually defined, the Kd is the constant that tells how readily two partners part at equilibrium. As usually defined, the EC50 is the concentration at which the effect is half-maximal.

The labels stand for the following.
T1: C5C7 segment of cMyBP-C (UniProt Q14896 645-967)
T1 construct: also called C5–C6–C7; wildtype C5C7; source: E. coli BL21(DE3)-RIPL, purified (HisTrapFF, TEV, ion exchange); not shown: His tag, N-terminal, cleaved
T1 sequence (looked up): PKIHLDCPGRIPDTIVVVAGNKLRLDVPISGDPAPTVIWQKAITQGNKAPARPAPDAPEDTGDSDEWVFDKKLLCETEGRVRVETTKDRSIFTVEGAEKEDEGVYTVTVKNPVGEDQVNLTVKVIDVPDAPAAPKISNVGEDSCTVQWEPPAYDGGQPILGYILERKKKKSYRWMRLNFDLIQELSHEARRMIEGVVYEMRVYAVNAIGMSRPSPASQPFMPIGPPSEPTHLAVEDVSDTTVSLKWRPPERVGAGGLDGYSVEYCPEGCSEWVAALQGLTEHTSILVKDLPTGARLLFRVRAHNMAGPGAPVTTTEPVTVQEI

B1: isolated m-motif of cMyBP-C (domain or fragment)
chain: HEAMGTGDLDLLSAFRRTSLAGGGRRISDSHEDTGILDFSSLLKKRDSFRTPRDSKLEAPAEEDVWEILRQAPPSEYERIAFQYGVTDLRGMLKRLKGMRRDEKK
modifications: here or on the partner: Unphosphorylated (bacterial expression). Limits taken as the interval between the annotated C1 (153-256) and C2 (362-452) domains. / Limits not printed. C-terminus from S2Δ as the first 126 residues o
B2: isolated m-motif of cMyBP-C (domain or fragment)
chain: B1 chain
B3: recombinant human cardiac myosin tail domain, first 126 amino acids of myosin subfragment-2 (myosin S2Δ) (domain or fragment, UniProt P12883 838-963, looked up)
chain: PLLKSAEREKEMASMKEEFTRLKEALEKSEARRKELEEKMVSLLQEKNDLQLQVQAEQDNLADAEERCDQLIKNKIQLEAKVKEMNERLEDEEEMNAELTAKKRKLEDECSELKRDIDDLELTLAK
modifications: Alexa 647-NHS label where it was the labelled partner; unlabelled where it was titrated
notes: human cardiac (β) myosin heavy chain, first 126 amino acids of subfragment-2; also called myosin tails; source: E. coli BL21(DE3)-RIPL, purified (HisTrapFF, TEV, ion exchange); not shown: His tag, N-terminal, cleaved

The target in experiment [1] is cMyBP-C (cardiac myosin-binding protein C) C0C2 (C0-P/A-C1-m-C2) (UniProt Q14896). The experiment can be described thus: microscale thermophoresis titration. Conditions: reference: unphosphorylated miniHMM. (Microscale thermophoresis detects binding through changes in fluorescence in a small temperature gradient.)
Experiment [2] shares this target. The experiment can be described thus: microscale thermophoresis titration. The following applies: reference: unphosphorylated miniHMM. The source holds these as a separate data set.
For experiment [3], the target named is bovine β-cardiac myosin S1 (bovine) (UniProt Q9BE39). The experiment can be described thus: MST; Monolith NT.115; 100 nmol/l Alexa647-labelled protein fixed, partner titrated; 20 mmol/l Mops pH 7, 1 mmol/l MgCl2, 50 mmol/l KCl, 1 mmol/l DTT, 0.05% Tween-20.
Sequence of bovine β-cardiac myosin S1 (bovine) (Q9BE39 whole entry, chain 1 of 2, the tested form may be a part): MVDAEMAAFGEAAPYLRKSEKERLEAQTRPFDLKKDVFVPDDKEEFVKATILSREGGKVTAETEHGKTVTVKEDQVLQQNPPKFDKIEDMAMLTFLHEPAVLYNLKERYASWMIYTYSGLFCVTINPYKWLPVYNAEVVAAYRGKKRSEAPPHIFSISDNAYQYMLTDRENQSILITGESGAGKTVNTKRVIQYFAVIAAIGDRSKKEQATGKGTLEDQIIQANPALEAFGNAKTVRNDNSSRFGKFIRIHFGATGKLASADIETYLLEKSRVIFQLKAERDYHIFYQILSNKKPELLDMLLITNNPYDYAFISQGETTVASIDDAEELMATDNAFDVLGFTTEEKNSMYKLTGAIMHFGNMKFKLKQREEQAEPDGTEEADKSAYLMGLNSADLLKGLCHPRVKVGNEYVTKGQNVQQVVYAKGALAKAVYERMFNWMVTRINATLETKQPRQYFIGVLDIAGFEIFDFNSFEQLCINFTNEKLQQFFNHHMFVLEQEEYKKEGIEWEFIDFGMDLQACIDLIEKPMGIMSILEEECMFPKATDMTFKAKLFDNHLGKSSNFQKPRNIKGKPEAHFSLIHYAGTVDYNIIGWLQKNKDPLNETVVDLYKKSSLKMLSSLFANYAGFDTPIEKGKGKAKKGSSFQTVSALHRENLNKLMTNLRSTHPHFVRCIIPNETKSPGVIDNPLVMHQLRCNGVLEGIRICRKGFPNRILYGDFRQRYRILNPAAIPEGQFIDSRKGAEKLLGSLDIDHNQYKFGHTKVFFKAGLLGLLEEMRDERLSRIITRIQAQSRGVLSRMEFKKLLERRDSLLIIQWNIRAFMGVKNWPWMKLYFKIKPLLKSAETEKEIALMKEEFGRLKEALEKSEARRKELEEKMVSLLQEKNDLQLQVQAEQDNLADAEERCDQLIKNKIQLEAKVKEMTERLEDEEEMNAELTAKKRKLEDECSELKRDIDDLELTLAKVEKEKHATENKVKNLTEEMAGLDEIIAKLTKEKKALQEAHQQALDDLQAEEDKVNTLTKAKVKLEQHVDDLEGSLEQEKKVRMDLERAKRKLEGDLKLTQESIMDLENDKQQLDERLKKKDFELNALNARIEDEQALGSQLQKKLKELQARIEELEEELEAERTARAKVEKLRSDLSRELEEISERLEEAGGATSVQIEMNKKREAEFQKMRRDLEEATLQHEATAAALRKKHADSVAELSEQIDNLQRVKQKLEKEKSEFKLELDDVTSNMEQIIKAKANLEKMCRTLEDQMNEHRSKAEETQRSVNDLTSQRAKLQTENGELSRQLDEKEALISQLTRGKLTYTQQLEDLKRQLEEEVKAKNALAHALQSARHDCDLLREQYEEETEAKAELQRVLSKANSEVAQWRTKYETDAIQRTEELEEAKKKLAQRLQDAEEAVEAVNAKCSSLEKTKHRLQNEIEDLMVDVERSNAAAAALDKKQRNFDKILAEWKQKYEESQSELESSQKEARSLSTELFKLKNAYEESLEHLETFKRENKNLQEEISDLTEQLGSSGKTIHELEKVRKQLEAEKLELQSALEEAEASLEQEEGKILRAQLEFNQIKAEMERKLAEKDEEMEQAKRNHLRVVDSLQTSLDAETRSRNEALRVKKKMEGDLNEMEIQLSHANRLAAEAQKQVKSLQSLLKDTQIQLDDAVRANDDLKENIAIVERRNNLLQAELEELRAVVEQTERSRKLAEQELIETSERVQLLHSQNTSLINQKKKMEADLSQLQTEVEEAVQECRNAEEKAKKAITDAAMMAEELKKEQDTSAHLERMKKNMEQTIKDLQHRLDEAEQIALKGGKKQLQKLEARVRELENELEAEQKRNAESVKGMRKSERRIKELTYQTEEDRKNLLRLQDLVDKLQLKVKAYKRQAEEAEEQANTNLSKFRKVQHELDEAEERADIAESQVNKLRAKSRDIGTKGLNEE
Sequence of bovine β-cardiac myosin S1 (bovine) (P85100 whole entry, chain 2 of 2, further chain, the tested form may be a part): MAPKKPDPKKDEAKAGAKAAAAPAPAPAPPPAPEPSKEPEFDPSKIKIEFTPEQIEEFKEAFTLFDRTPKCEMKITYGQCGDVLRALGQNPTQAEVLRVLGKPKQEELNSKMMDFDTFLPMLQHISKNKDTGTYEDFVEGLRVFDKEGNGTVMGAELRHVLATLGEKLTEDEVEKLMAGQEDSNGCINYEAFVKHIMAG
Experiment [4] concerns the target recombinant human cardiac myosin tail domain, first 126 amino acids of myosin subfragment-2 (myosin S2Δ) (human) (UniProt P12883). The experiment is described as above.
For experiment [5], the target named is bovine β-cardiac myosin S1 (bovine) (UniProt Q9BE39). The experiment can be described thus: MST; competition: C5C7 titrated into a mixture of Alexa647-labelled myosin S1 and C2C4.
The target of experiment [6] is human cardiac myosin tail domain (myosin S2Δ; also the heavy-chain part of miniHMM) miniHMM heavy-chain part containing myosin S2Δ (UniProt P12883). The experiment can be described thus: microscale thermophoresis titration. The following applies: reference: unphosphorylated C0C2.
For experiment [7] the target is unchanged. The experiment can be described thus: microscale thermophoresis titration. The following applies: reference: unphosphorylated C0C2. This is another data set of the same source.
Experiment [8] deals with bovine β-cardiac myosin S1 myosin S1 (head domain) (UniProt Q9BE39). The experiment can be described thus: microscale thermophoresis titration. The following applies: reference: unphosphorylated C0C2.
Experiment [9] deals with miniHMM, recombinant fragment of human cardiac myosin containing the myosin S2Δ tail domain bound to two RLCs (human), P12883. The experiment can be described thus: MST; as the other MST titrations but pH adjusted to 6.2 for the isolated m-motif; 100 nmol/l Alexa647-labelled protein fixed.
Sequence of miniHMM, recombinant fragment of human cardiac myosin containing the myosin S2Δ tail domain bound to two RLCs (human), P12883 (P12883 whole entry, stated change not applied, the tested form may be a part): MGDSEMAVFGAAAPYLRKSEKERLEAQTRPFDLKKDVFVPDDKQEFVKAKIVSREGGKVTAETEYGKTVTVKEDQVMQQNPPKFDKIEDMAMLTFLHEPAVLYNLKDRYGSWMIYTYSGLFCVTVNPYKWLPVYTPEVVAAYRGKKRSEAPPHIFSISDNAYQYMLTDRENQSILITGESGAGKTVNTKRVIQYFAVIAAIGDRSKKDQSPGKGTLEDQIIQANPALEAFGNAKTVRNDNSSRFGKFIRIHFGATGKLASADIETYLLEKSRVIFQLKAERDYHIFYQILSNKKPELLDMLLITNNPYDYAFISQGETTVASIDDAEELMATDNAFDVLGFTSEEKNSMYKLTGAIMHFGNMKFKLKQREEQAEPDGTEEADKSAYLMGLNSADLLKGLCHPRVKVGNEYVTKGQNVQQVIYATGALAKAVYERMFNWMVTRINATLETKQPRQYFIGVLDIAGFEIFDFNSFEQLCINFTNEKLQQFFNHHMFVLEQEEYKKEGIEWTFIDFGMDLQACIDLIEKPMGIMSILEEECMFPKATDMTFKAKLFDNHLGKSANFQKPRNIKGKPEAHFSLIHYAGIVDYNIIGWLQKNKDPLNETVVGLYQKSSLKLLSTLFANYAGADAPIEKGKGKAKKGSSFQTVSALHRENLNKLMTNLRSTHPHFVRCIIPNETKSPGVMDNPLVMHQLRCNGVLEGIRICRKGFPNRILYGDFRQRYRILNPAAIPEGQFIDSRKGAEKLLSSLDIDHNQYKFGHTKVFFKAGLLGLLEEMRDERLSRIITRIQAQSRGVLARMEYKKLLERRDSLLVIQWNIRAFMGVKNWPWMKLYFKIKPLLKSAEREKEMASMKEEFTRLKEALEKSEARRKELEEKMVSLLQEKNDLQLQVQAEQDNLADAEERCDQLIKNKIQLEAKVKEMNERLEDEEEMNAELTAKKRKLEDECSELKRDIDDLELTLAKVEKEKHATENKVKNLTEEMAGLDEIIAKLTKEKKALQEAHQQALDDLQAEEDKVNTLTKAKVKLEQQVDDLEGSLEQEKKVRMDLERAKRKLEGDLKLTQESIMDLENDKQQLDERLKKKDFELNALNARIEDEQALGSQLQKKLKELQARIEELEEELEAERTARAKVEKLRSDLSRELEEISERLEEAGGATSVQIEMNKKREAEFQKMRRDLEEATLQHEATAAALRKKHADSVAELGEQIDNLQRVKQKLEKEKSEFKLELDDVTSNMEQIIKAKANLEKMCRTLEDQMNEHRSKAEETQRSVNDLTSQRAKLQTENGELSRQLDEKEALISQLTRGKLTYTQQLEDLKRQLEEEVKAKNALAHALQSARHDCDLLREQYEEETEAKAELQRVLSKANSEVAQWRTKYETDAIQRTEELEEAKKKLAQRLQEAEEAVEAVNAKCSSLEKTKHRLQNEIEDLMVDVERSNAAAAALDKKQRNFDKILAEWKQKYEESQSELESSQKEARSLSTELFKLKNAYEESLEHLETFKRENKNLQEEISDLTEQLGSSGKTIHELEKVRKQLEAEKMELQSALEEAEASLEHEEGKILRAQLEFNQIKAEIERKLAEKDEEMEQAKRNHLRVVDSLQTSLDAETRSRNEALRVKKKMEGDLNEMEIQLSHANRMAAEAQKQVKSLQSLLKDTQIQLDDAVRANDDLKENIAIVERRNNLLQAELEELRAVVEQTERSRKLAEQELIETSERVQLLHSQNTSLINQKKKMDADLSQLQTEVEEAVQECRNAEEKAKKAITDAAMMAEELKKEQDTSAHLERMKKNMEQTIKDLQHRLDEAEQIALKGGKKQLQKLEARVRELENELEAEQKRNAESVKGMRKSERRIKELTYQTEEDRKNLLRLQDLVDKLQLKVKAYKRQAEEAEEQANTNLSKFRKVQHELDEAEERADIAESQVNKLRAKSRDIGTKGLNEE
The target in experiment [10] is B3. The experiment is described as above. The following applies: both partners purified.
In experiment [11] the target is T2, bovine β-cardiac myosin S1 (bovine, UniProt Q9BE39 1-1935; P85100 1-199; Q3SZE5 1-166, Alexa 647-NHS label (chain and site not stated)).
T2 construct: β-cardiac myosin heavy chain (MHC), bovine, the part that lies in subfragment 1; essential light chain (ELC) of bovine cardiac myosin, labelled on the gel of isolated S1; regulatory light chain (RLC) of bovine cardiac myosin, labelled on the gel of isolated S1; the text says that an intact RLC neck region is not present in this S1; Used at 100 nmol/l as the Alexa647-labelled partner in MST; also …
T2 sequence (Q9BE39 whole entry, chain 1 of 2, the tested form may be a part): as the sequence (Q9BE39 whole entry, chain 1 of 2, the tested form may be a part) above
T2 sequence (P85100 whole entry, chain 2 of 2, the tested form may be a part): as the sequence (P85100 whole entry, chain 2 of 2, further chain, the tested form may be a part) above
Described as above. The following applies: both partners purified.

In a further experiment the target is T3, C0C1 fragment of cMyBP-C (UniProt Q14896 1-258).
T3 construct: also called C0-P/A-C1; source: E. coli BL21(DE3)-RIPL, purified (HisTrapFF, TEV, ion exchange); not shown: His tag, N-terminal, cleaved
T3 sequence (Q14896 1-258): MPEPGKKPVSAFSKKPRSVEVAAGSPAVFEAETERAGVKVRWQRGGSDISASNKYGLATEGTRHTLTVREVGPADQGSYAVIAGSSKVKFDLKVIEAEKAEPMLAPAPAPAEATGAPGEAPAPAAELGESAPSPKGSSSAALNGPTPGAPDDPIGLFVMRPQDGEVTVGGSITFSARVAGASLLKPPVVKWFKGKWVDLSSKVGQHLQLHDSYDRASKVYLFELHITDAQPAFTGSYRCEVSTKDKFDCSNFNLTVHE
The experiment can be described thus: MST; Monolith NT.115; 100 nmol/l Alexa647-labelled protein fixed, partner titrated; 20 mmol/l Mops pH 7, 1 mmol/l MgCl2, 50 mmol/l KCl, 1 mmol/l DTT, 0.05% Tween-20. Conditions: both partners purified.

In a further experiment the target is T1, C5C7 segment of cMyBP-C. The experiment is described as above. The following applies: both partners purified.
The target in experiment [12] is T2, bovine β-cardiac myosin S1. The description is as above.

Regarding “myosin regulatory light chain (RLC) in miniHMM (from UniProt P10916) cMLCK-phosphorylated miniHMM”, the KD result in [1] was “same; reference 3.4 ± 0.1”; in experiment [2] it was “stronger; reference 9.7 ± 0.5”.

Turning to “C0C2-3P, tris-phosphorylated C0C2 (from UniProt Q14896 1-452) (domain or fragment)”, in experiment [3], the Kd came to 2.2 µM.

The molecule “domain C4 of cMyBP-C (from UniProt Q14896 544-633) (domain or fragment)” returned a Kd in experiment [3] of 2.5 µM.

Take “domain C2 of cMyBP-C (from UniProt Q14896 362-452) (domain or fragment)”: the Kd in experiment [3] is 42.3 µM.

For the molecule “C5C7-N755K (from UniProt Q14896 1-1274) (domain or fragment)”, the dissociation constant Kd in experiment [4] amounted to 73.9 µM; in [3] it was 0.43 µM.

As for “C5C7-R943Q (from UniProt Q14896 1-1274) (domain or fragment)”, the Kd was 32.6 µM in experiment [4] and 0.61 µM in experiment [3].

As for “C0C2-truncated cMyBP-C (ΔC0C2-cMyBP-C) (from UniProt Q14896 453-1274) (domain or fragment)”, the Kd in [3] was 0.51 µM.

Consider “C2C4 segment of cMyBP-C (from UniProt Q14896 362-633) (domain or fragment)”, for which, in experiment [3], the Kd came to 0.38 µM.

“domain C3 of cMyBP-C (from UniProt Q14896 453-543) (domain or fragment)”: in [3], the Kd is 25 µM.

Regarding “C0C2, cMyBP-C spanning domains C0 to C2 (from UniProt Q14896 1-452) (domain or fragment)”, the Kd was determined as 6.5 µM in [4] and 3.4 µM in experiment [3].

In turn, “C0C1 fragment of cMyBP-C (from UniProt Q14896 1-258) (domain or fragment)” displayed a Kd in experiment [3] of 3.8 µM.

In the case of “C5C7-R820Q (from UniProt Q14896 1-1274) (domain or fragment)”, the figures for the Kd in experiment [4] and in experiment [3] were 59.1 µM and 1.3 µM, respectively.

Regarding “C5C7 segment of cMyBP-C (from UniProt Q14896 645-967) (domain or fragment)”, the EC50 in [5] is 3.8 µM. Also, the Kd in experiment [3] came out at 0.77 µM.

Consider “domain C0 of cMyBP-C (from UniProt Q14896 1-101) (domain or fragment)”, for which, in experiment [3], the Kd amounted to 91.3 µM.

In the case of “domain C1 of cMyBP-C (from UniProt Q14896 151-258) (domain or fragment)”, the Kd in experiment [3] is 3.8 µM.

Consider “cMyBP-C (cardiac myosin-binding protein C) C0C2 (C0-P/A-C1-m-C2) (from UniProt Q14896) PKA tris-phosphorylated C0C2-3P, IEC purified”, for which the results for the KD result in [6], in [7] and in [8] were “weaker; reference 2.7 ± 0.1”, “weaker; reference 3.4 ± 0.1” and “same; reference 3.4 ± 0.3”, respectively.

“full-length cardiac myosin-binding protein C (cMyBP-C) (from UniProt Q14896 1-1274) (natural protein)” gave a dissociation constant Kd in experiment [3] of 0.3 µM.

With B1, the Kd in experiment [9] amounted to 49.7 µM.

Consider B2, for which the Kd came out at 41.4 µM in [10] and 183 µM in experiment [11].

Turning to B3, the results for the Kd (in the experiment with C0C1 fragment of cMyBP-C; with C5C7 segment of cMyBP-C; in experiment [12]) were 199 µM, 25.8 µM and 0.6 µM, respectively.
